Reference: article PMC7593969

Tests used:
LMP7-Myc, P28062-2 = experiment: co-IP (anti-Flag IP, anti-Myc IB), band intensity quantified; conditions: 293T cells cotransfected for 24 h; parent: 100; read off a plot
LMP7-His (biotinylated) = LMP7-His (biotinylated) (UniProt P28062); experiment: BLI; biotinylated LMP7 on streptavidin biosensors; GST or Nef-GST in solution; PBS; 1:1 binding model
[1] = molecular target: Nef(1 to 115)-(L112A)-GFP-Flag (HIV-1 (NL4-3)) (UniProt P03406); experiment: co-IP; HEK293T cotransfected 24 h with LMP7-Myc and GFP-Flag or Nef(1 to 115)-GFP-Flag constructs; anti-Flag IP; blot with anti-Myc
[2] = molecular target: Nef(1 to 115)-(L112A/Y115A)-GFP-Flag (HIV-1 (NL4-3)) (UniProt P03406); experiment: as above
[3] = molecular target: Nef(1 to 115)-(Y115A)-GFP-Flag (HIV-1 (NL4-3)) (UniProt P03406); experiment: as above
proLMP7-Flag = proLMP7-Flag (UniProt P28062); experiment: co-IP; HEK293T cotransfected 24 h with Nef-HA constructs and LMP7-Flag constructs; RIPA lysates; anti-Flag antibody and protein G-Sepharose at 4°C overnight; blot with anti-HA

Chain of LMP7-Myc, P28062-2 (P28062 other isoform, or with tags, fused parts or gaps): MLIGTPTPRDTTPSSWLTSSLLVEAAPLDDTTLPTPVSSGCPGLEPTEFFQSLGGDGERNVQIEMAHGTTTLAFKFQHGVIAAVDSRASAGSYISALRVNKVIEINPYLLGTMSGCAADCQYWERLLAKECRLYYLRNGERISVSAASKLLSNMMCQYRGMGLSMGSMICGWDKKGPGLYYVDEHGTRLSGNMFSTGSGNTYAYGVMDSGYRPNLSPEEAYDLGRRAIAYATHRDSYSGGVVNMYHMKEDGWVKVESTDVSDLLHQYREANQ

Substance | percent of parent (LMP7-Myc, P28062-2) [%] | further results
Nef(1 to 115)-GFP-Flag (from UniProt P03406) I109A | 60 | 
Nef(1 to 115)-GFP-Flag (from UniProt P03406) L110A | 60 | 
Nef-GST (from UniProt P03406 1-206) (natural protein) |  | BLI wavelength shift (LMP7-His (biotinylated)): 71.1 pm; Kd (LMP7-His (biotinylated)): 735 nM
Nef(1 to 115)-GFP-Flag (from UniProt P03406) I109A; L110A; D111A; L112A | 28 | 
LMP7-Myc (from UniProt P28062-2 1-272) (natural protein) |  | relative co-IP band intensity (Nef(1 to 115) = 100%) [1]: 19%; relative co-IP band intensity (Nef(1 to 115) = 100%) [2]: 1.4%; relative co-IP band intensity (Nef(1 to 115) = 100%) [3]: 14%
Nef(1 to 115)-GFP-Flag (from UniProt P03406) I114A | 47 | 
Nef(1 to 130)-HA (from UniProt P03406 1-130) (domain or fragment) |  | strength of the interaction (co-IP band) relative to Nef(1 to 115) (proLMP7-Flag): 40 % higher; strength of the interaction (co-IP band) relative to Nef(1 to 149) (proLMP7-Flag): 20 % stronger
Nef(1 to 115)-GFP-Flag (from UniProt P03406) 105-108A | 120 | 
Nef(1 to 115)-GFP-Flag (from UniProt P03406) W113A; I114A; Y115A | 31 | 
Nef(1 to 115)-GFP-Flag (from UniProt P03406) W113A | 97 | 
Nef(1 to 115)-GFP-Flag (from UniProt P03406) D111A | 130 | 
Nef(1 to 115)-GFP-Flag (from UniProt P03406) 101-104A | 53 | 
